In paper PMC7021315 one finds stoichiometry N data, which are given here for one substance.

As a reminder, the stoichiometry N is the number of molecules, sites or subunits per partner or assembly.

For experiment [1], the target named is recombinant Zika virus E protein (soluble E, lacking the stem-anchor region) (Zika virus). Nature of the experiment: SEC; Superdex 200 Increase 3.2/300 column, ÄKTA FPLC, TAN buffer pH 8.0.
Experiment [2] shares this target. Nature of the experiment: rate zonal ultracentrifugation in sucrose gradients; 3-5 ug E protein on sucrose gradients, 20 h at 38,000 rpm, 15°C, Beckman SW40 rotor; fractions quantified by ELISA (Strep-Tactin capture, mab A1 detection). On the technique in general: In an ELISA, binding on a coated surface is turned into a signal by an enzyme label.

On to “recombinant Zika virus E protein (soluble E, lacking the stem-anchor region) (domain or fragment)”, for which the stoichiometry N in experiment [1] and in experiment [2] was 2 throughout.
